What all share (settings): 20 nM; 72 h
The test system of data set [1] is MCF10A. Briefly: percent viability (nuclei count relative to siNT); higher = more viable cells. Here is the method: (§1)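 After 72 h, cells were fixed and stained with Hoechst and anti-fibrillarin, and nucleoli per nucleus were counted with CellProfiler. Values are plate-adjusted percent effect for the one-nucleolus and 5+ nucleoli phenotypes, normalised to siNT (0%) and to the positive controls siNOL11 or siKIF11 (100%), as the mean of biological triplicates. Percent viability is the nuclei count relative to siNT.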

Data set [2] concerns MCF10A. Put plainly: 5+ nucleoli phenotype percent effect (relative to siNT 0% and siKIF11 100%); higher = more cells with five or more nucleoli. The protocol: as §1
Data set [3] has as its system MCF10A. Briefly: one-nucleolus phenotype percent effect (relative to siNT 0% and siNOL11 100%); higher = more cells with one nucleolus (ribosome biogenesis inhibition). The protocol: as §1

For the sequence UACUGCAUCAGGAACUGAUUGGA [hsa-miR-217], in the data set with MCF10A [1], the percent viability came to 62.9%. In addition, the “5+ nucleoli phenotype percent effect” value with MCF10A [2] was 1.56%. Further, the “one-nucleolus phenotype percent effect” value with MCF10A [3] was 0.807%.

With UACUUGGAAAGGCAUCAGUUG [hsa-miR-890], the percent viability in the data set on MCF10A [1] turned out to be 21%. Also, the “5+ nucleoli phenotype percent effect” value with MCF10A [2] is -34.1%. Also, the “one-nucleolus phenotype percent effect” value in the data set on MCF10A [3] came to 49.1%.

As to UACUUUUCUAGGUUGUUGGGG [hsa-miR-5003-3p], in the data set with MCF10A [1], the percent viability stood at 24.9%. Besides, the “5+ nucleoli phenotype percent effect” value in the data set with MCF10A [2] is -39.5%. In addition, the “one-nucleolus phenotype percent effect” value in the data set on MCF10A [3] amounted to 55.6%.

On to UAGACCAUCUUUCUAGAGUAU [hsa-miR-6502-3p], for which the percent viability with MCF10A [1] amounted to 102%. The “5+ nucleoli phenotype percent effect” value in the data set on MCF10A [2] was -0.273%. Besides, the “one-nucleolus phenotype percent effect” value in the data set with MCF10A [3] is -0.125%.

Take UAGACGUGGUGAAGGAUUGAGUG [hsa-miR-6863]: in the data set with MCF10A [1], the percent viability amounted to 47.3%. Besides, the “5+ nucleoli phenotype percent effect” value in the data set with MCF10A [2] is -16.5%. The “one-nucleolus phenotype percent effect” value with MCF10A [3] was 1.02%.

In the case of “UAGAGAGGGGAAGGAUGUGAUGU [hsa-miR-6758-5p]”, the percent viability in the data set on MCF10A [1] came out at 44.4%. The “5+ nucleoli phenotype percent effect” value with MCF10A [2] is -13.9%. In the data set with MCF10A [3], the “one-nucleolus phenotype percent effect” value came out at 12.9%.

As to UAGAGGAAGCUGUGGAGAGA [hsa-miR-3125], the percent viability with MCF10A [1] is 23.3%. Besides, the “5+ nucleoli phenotype percent effect” value in the data set with MCF10A [2] is -14.5%. Besides, the “one-nucleolus phenotype percent effect” value in the data set on MCF10A [3] was determined as 13.8%.

In the case of “UAGAGUCUGGCUGAUAUGGUUU [hsa-miR-5007-5p]”, in the data set on MCF10A [1], the percent viability is 49.3%. Moreover, the “5+ nucleoli phenotype percent effect” value with MCF10A [2] was -8%. Moreover, the “one-nucleolus phenotype percent effect” value in the data set on MCF10A [3] stood at 14%.

For UAGAUAAAAUAUUGGUACCUG [hsa-miR-577], the percent viability in the data set with MCF10A [1] turned out to be 113%. Further, in the data set with MCF10A [2], the “5+ nucleoli phenotype percent effect” value is 29.6%. In addition, the “one-nucleolus phenotype percent effect” value in the data set with MCF10A [3] is -23.7%.

For the sequence “UAGAUCUUUGACUCUGGCAGUCUCCAGG [hsa-miR-7161-3p]”, the percent viability with MCF10A [1] was 87.7%. In addition, the “5+ nucleoli phenotype percent effect” value in the data set with MCF10A [2] was 28.4%. Moreover, the “one-nucleolus phenotype percent effect” value with MCF10A [3] is -23.9%.

With UAGCAAAAACUGCAGUUACUUU [hsa-miR-548p], the percent viability with MCF10A [1] worked out at 114%. Further, the “5+ nucleoli phenotype percent effect” value in the data set on MCF10A [2] was found to be 17.2%. In the data set with MCF10A [3], the “one-nucleolus phenotype percent effect” value is -21.8%.

Take UAGCAAGAGAACCAUUACCAUU [hsa-miR-451b]: the percent viability in the data set with MCF10A [1] was determined as 71.6%. Besides, the “5+ nucleoli phenotype percent effect” value with MCF10A [2] amounted to 3.42%. Also, the “one-nucleolus phenotype percent effect” value in the data set with MCF10A [3] was -10.8%.

For “UAGCAAUACAGUACAAAUAUAGU [hsa-miR-4703-5p]”, in the data set on MCF10A [1], the percent viability was 131%. Moreover, the “5+ nucleoli phenotype percent effect” value in the data set on MCF10A [2] was determined as 32.3%. For the same sequence, in the data set on MCF10A [3], the “one-nucleolus phenotype percent effect” value was -22%.

With UAGCACCAUCUGAAAUCGGUUA [hsa-miR-29a-3p], in the data set on MCF10A [1], the percent viability was found to be 65.1%. The “5+ nucleoli phenotype percent effect” value with MCF10A [2] came to 46.9%. For the same sequence, the “one-nucleolus phenotype percent effect” value with MCF10A [3] is -24%.

Consider “UAGCACCAUUUGAAAUCAGUGUU [hsa-miR-29b-3p]”, for which the percent viability with MCF10A [1] was found to be 63.7%. Also, the “5+ nucleoli phenotype percent effect” value in the data set with MCF10A [2] is 20.2%. Besides, the “one-nucleolus phenotype percent effect” value in the data set with MCF10A [3] was -20.6%.

In the case of UAGCACCAUUUGAAAUCGGUUA [hsa-miR-29c-3p], the percent viability in the data set on MCF10A [1] came to 138%. The “5+ nucleoli phenotype percent effect” value in the data set on MCF10A [2] amounted to 38%. For the same sequence, the “one-nucleolus phenotype percent effect” value in the data set on MCF10A [3] was -21%.

Turning to UAGCAGCACAGAAAUAUUGGC [hsa-miR-195-5p], the percent viability with MCF10A [1] is 26.4%. For the same sequence, the “5+ nucleoli phenotype percent effect” value with MCF10A [2] is -10.1%. Moreover, the “one-nucleolus phenotype percent effect” value in the data set on MCF10A [3] stood at 13.4%.

Take UAGCAGCACAUAAUGGUUUGUG [hsa-miR-15a-5p]: the percent viability with MCF10A [1] was determined as 17.3%. Moreover, in the data set with MCF10A [2], the “5+ nucleoli phenotype percent effect” value was -43.7%. The “one-nucleolus phenotype percent effect” value in the data set on MCF10A [3] was 40.1%.

Regarding UAGCAGCACAUCAUGGUUUACA [hsa-miR-15b-5p], the percent viability in the data set on MCF10A [1] turned out to be 26.5%. The “5+ nucleoli phenotype percent effect” value with MCF10A [2] was -4.86%. Besides, the “one-nucleolus phenotype percent effect” value in the data set with MCF10A [3] was found to be 26.9%.

Regarding UAGCAGCACGUAAAUAUUGGCG [hsa-miR-16-5p], the percent viability in the data set on MCF10A [1] came out at 15.8%. In addition, the “5+ nucleoli phenotype percent effect” value with MCF10A [2] is -19.3%. Also, the “one-nucleolus phenotype percent effect” value in the data set on MCF10A [3] came to 27.2%.

For the sequence “UAGCAGCGGGAACAGUUCUGCAG [hsa-miR-503-5p]”, the percent viability in the data set with MCF10A [1] turned out to be 29.1%. Also, the “5+ nucleoli phenotype percent effect” value with MCF10A [2] was -16.1%. The “one-nucleolus phenotype percent effect” value in the data set with MCF10A [3] was found to be 14.4%.

For the sequence UAGCCCCCAGGCUUCACUUGGCG [hsa-miR-3943], the percent viability in the data set on MCF10A [1] worked out at 19.1%. For the same sequence, the “5+ nucleoli phenotype percent effect” value with MCF10A [2] was -18.2%. Further, the “one-nucleolus phenotype percent effect” value in the data set with MCF10A [3] was 8.41%.

On to “UAGCCUUCAGAUCUUGGUGUUUU [hsa-miR-3614-3p]”, for which, in the data set on MCF10A [1], the percent viability was found to be 51.5%. Besides, the “5+ nucleoli phenotype percent effect” value in the data set on MCF10A [2] is -23.5%. Further, the “one-nucleolus phenotype percent effect” value in the data set with MCF10A [3] was 28.6%.

For the sequence UAGCGGGGAUUCCAAUAUUGG [hsa-miR-4781-5p], the percent viability in the data set on MCF10A [1] was 24.3%. Also, in the data set on MCF10A [2], the “5+ nucleoli phenotype percent effect” value was -29.7%. The “one-nucleolus phenotype percent effect” value with MCF10A [3] turned out to be 46.5%.

As to UAGCUUAUCAGACUGAUGUUGA [hsa-miR-21-5p], the percent viability in the data set with MCF10A [1] came out at 121%. Besides, the “5+ nucleoli phenotype percent effect” value with MCF10A [2] came to 11.7%. Further, the “one-nucleolus phenotype percent effect” value in the data set with MCF10A [3] was -9.39%.

Regarding UAGGACACAUGGUCUACUUCU [hsa-miR-1197], the percent viability in the data set on MCF10A [1] was found to be 61.7%. Further, in the data set on MCF10A [2], the “5+ nucleoli phenotype percent effect” value is -9.77%. In addition, in the data set on MCF10A [3], the “one-nucleolus phenotype percent effect” value came to 7.44%.

In the case of UAGGACUAGAUGUUGGAAUUA [hsa-miR-4759], the percent viability in the data set on MCF10A [1] was 33.2%. Also, the “5+ nucleoli phenotype percent effect” value with MCF10A [2] turned out to be 10.4%. For the same sequence, in the data set with MCF10A [3], the “one-nucleolus phenotype percent effect” value was -7.56%.

For UAGGACUGUGCUUGGCACAUAG [hsa-miR-3169], in the data set on MCF10A [1], the percent viability was determined as 27.4%. In the data set on MCF10A [2], the “5+ nucleoli phenotype percent effect” value stood at 20%. The “one-nucleolus phenotype percent effect” value in the data set on MCF10A [3] came out at 1.07%.

Regarding UAGGAGGGAAUAGUAAAAGCAG [hsa-miR-4779], the percent viability in the data set on MCF10A [1] amounted to 15%. In addition, in the data set on MCF10A [2], the “5+ nucleoli phenotype percent effect” value is -25.8%. Moreover, in the data set with MCF10A [3], the “one-nucleolus phenotype percent effect” value turned out to be 54.7%.

With UAGGAUGGGGGUGAGAGGUG [hsa-miR-2392], the percent viability in the data set with MCF10A [1] amounted to 50.4%. Besides, the “5+ nucleoli phenotype percent effect” value in the data set on MCF10A [2] was determined as 17.7%. For the same sequence, the “one-nucleolus phenotype percent effect” value with MCF10A [3] was -3.85%.

UAGGAUUACAAGUGUCGGCCAC [hsa-miR-3159]: the percent viability in the data set with MCF10A [1] turned out to be 44.9%. The “5+ nucleoli phenotype percent effect” value in the data set with MCF10A [2] was -4.52%. Besides, the “one-nucleolus phenotype percent effect” value in the data set on MCF10A [3] is -5%.

For “UAGGCACACUUAAAGUUAUAGC [hsa-miR-5582-5p]”, the percent viability in the data set on MCF10A [1] amounted to 13.8%. The “5+ nucleoli phenotype percent effect” value with MCF10A [2] was -17.3%. Also, in the data set on MCF10A [3], the “one-nucleolus phenotype percent effect” value was 37.6%.

Regarding “UAGGCAGUGUAUUGCUAGCGGCUGU [hsa-miR-449c-5p]”, the percent viability in the data set on MCF10A [1] stood at 17.7%. Besides, the “5+ nucleoli phenotype percent effect” value in the data set on MCF10A [2] was -19.5%. Further, in the data set on MCF10A [3], the “one-nucleolus phenotype percent effect” value was determined as 17.4%.

For “UAGGCAGUGUCAUUAGCUGAUUG [hsa-miR-34b-5p]”, the percent viability in the data set with MCF10A [1] worked out at 17.6%. The “5+ nucleoli phenotype percent effect” value in the data set on MCF10A [2] is -23.8%. In addition, the “one-nucleolus phenotype percent effect” value in the data set with MCF10A [3] amounted to 35.6%.

For “UAGGCCACAGCCACCCAUGUGU [hsa-miR-4717-5p]”, the percent viability in the data set on MCF10A [1] is 23.3%. The “5+ nucleoli phenotype percent effect” value in the data set with MCF10A [2] was -6.97%. The “one-nucleolus phenotype percent effect” value in the data set on MCF10A [3] was -8.66%.

In the case of “UAGGCCUUUAGAUCACUUAAA [hsa-miR-1245b-5p]”, in the data set on MCF10A [1], the percent viability came out at 21.5%. The “5+ nucleoli phenotype percent effect” value in the data set with MCF10A [2] is -5.02%. For the same sequence, in the data set on MCF10A [3], the “one-nucleolus phenotype percent effect” value was 19.2%.

Source of the values: the supplement of paper PMC10899765.
